According to doi:10.1101/2022.03.29.486248 (bioRxiv, 2022):

T1: SufB (subunit of the His6-SufBC2D complex, wild type) (Escherichia coli, UniProt P77522 1-495)
T1 sequence: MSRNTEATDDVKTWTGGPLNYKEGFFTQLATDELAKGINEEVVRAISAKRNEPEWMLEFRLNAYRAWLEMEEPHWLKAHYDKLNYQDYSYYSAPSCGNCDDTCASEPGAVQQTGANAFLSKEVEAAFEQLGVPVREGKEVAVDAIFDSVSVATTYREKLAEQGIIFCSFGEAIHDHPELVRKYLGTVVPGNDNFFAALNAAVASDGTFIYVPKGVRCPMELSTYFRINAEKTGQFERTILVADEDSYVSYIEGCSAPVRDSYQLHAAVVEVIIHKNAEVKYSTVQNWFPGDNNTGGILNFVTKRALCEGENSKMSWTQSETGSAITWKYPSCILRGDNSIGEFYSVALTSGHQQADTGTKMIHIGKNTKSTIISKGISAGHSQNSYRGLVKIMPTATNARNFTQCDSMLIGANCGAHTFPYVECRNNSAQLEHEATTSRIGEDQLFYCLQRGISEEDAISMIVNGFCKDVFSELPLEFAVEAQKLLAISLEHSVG

B1: SufC (subunit of the SufBC2D complex) (natural protein, Escherichia coli)
chain: MLSIKDLHVSVEDKAILRGLSLDVHPGEVHAIMGPNGSGKSTLSATLAGREDYEVTGGTVEFKGKDLLALSPEDRAGEGIFMAFQYPVEIPGVSNQFFLQTALNAVRSYRGQETLDRFDFQDLMEEKIALLKMPEDLLTRSVNVGFSGGEKKRNDILQMAVLEPELCILDESDSGLDIDALKVVADGVNSLRDGKRSFIIVTHYQRILDYIKPDYVHVLYQGRIVKSGDFTLVKQLEEQGYGWLTEQQ
B2: SufD (subunit of the SufBC2D complex, wild type) (natural protein, Escherichia coli)
chain: MAGLPNSSNALQQWHHLFEAEGTKRSPQAQQHLQQLLRTGLPTRKHENWKYTPLEGLINSQFVSIAGEISPQQRDALALTLDSVRLVFVDGRYVPALSDATEGSGYEVSINDDRQGLPDAIQAEVFLHLTESLAQSVTHIAVKRGQRPAKPLLLMHITQGVAGEEVNTAHYRHHLDLAEGAEATVIEHFVSLNDARHFTGARFTINVAANAHLQHIKLAFENPLSHHFAHNDLLLAEDATAFSHSFLLGGAVLRHNTSTQLNGENSTLRINSLAMPVKNEVCDTRTWLEHNKGFCNSRQLHKTIVSDKGRAVFNGLINVAQHAIKTDGQMTNNNLLMGKLAEVDTKPQLEIYADDVKCSHGATVGRIDDEQIFYLRSRGINQQDAQQMIIYAFAAELTEALRDEGLKQQVLARIGQRLPGGAR

Target: T1, SufB (subunit of the His6-SufBC2D …)
Test: SEC-MALS

| stoichiometry N | Binder |
| --- | --- |
| 2 | B1 |
| 1 | B2 |
